# Measured values: patent US20140087995A1 (published 2014)
# Numbered stars: 1 amine (or outer) side, 2 acyl side, 3 side chain; on linkers, the order of the positions; unused ones are H or OH. Bridge positions count the residues as written; N and C are the ends. Side chains are listed from the residue outwards. Ends that are not written are not given here. * marks the point of attachment. C20 diacid = O=C(O)CCCCCCCCCCCCCCCCCCC(=O)*; γGlu = O=C(O)[C@H](CCC(=O)[*:2])N[*:1]; AEEA = NCCOCCOCC(=O)O
# T1: human calcitonin receptor (human, UniProt P30988 25-474)
# T1 construct: whole, on cells; Assay used cell membranes of the transfected BHK cells; also called hCTR; hCT
# T1 sequence (looked up): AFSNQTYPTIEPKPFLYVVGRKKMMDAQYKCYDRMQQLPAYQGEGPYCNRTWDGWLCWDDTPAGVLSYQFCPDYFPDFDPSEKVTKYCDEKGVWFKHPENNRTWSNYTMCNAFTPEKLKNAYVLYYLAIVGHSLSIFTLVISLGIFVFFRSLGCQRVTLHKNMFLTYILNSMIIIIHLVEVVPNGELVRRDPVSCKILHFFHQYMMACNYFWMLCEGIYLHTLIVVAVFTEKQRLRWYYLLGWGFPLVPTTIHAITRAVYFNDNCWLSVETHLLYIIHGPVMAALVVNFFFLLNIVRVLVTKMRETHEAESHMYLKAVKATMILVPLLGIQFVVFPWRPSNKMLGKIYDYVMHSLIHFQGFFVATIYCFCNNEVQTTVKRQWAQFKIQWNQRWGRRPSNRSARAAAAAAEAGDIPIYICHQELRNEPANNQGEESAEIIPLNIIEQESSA
# B1: N^ε1-[2-[2-[2-[[(4S)-4-carboxy-4-(19-carboxynonadecanoylamino)butanoyl]amino]ethoxy]ethoxy]acetyl]-[Arg17,Pro21,Pro27]-h-amylin (peptide)
# peptide: K([AEEA-γGlu-C20 diacid])CNTATCATQRLANFLRHSSPNFGAIPSSTNVGSNTY-NH2
# modifications: disulfide 2-7; N-terminus assumed
# SMILES: CC[C@H](C)[C@H](NC(=O)[C@H](C)NC(=O)CNC(=O)[C@H](Cc1ccccc1)NC(=O)[C@H](CC(N)=O)NC(=O)[C@@H]1CCCN1C(=O)[C@H](CO)NC(=O)[C@H](CO)NC(=O)[C@H](Cc1c[nH]cn1)NC(=O)[C@H](CCCNC(=N)N)NC(=O)[C@H](CC(C)C)NC(=O)[C@H](Cc1ccccc1)NC(=O)[C@H](CC(N)=O)NC(=O)[C@H](C)NC(=O)[C@H](CC(C)C)NC(=O)[C@H](CCCNC(=N)N)NC(=O)[C@H](CCC(N)=O)NC(=O)[C@@H](NC(=O)[C@H](C)NC(=O)[C@@H]1CSSC[C@H](NC(=O)[C@@H](N)CCCCNC(=O)COCCOCCNC(=O)CC[C@H](NC(=O)CCCCCCCCCCCCCCCCCCC(=O)O)C(=O)O)C(=O)N[C@@H](CC(N)=O)C(=O)N[C@@H]([C@@H](C)O)C(=O)N[C@@H](C)C(=O)N[C@@H]([C@@H](C)O)C(=O)N1)[C@@H](C)O)C(=O)N1CCC[C@H]1C(=O)N[C@@H](CO)C(=O)N[C@@H](CO)C(=O)N[C@H](C(=O)N[C@@H](CC(N)=O)C(=O)N[C@H](C(=O)NCC(=O)N[C@@H](CO)C(=O)N[C@@H](CC(N)=O)C(=O)N[C@H](C(=O)N[C@@H](Cc1ccc(O)cc1)C(N)=O)[C@@H](C)O)C(C)C)[C@@H](C)O
# notes: Synthetic analogue; also called compound 41
# B2: N^ε-[2-[2-[2-[[(4S)-4-carboxy-4-(19-carboxynonadecanoylamino)butanoyl]amino]ethoxy]ethoxy]acetyl]Lys[Arg1,Arg17,Pro21,Pro27,His35]-h-amylin (peptide)
# peptide: K([AEEA-γGlu-C20 diacid])RCNTATCATQRLANFLRHSSPNFGAIPSSTNVGSHTY-NH2
# modifications: disulfide 3-8; N-terminus assumed
# SMILES: CC[C@H](C)[C@H](NC(=O)[C@H](C)NC(=O)CNC(=O)[C@H](Cc1ccccc1)NC(=O)[C@H](CC(N)=O)NC(=O)[C@@H]1CCCN1C(=O)[C@H](CO)NC(=O)[C@H](CO)NC(=O)[C@H](Cc1c[nH]cn1)NC(=O)[C@H](CCCNC(=N)N)NC(=O)[C@H](CC(C)C)NC(=O)[C@H](Cc1ccccc1)NC(=O)[C@H](CC(N)=O)NC(=O)[C@H](C)NC(=O)[C@H](CC(C)C)NC(=O)[C@H](CCCNC(=N)N)NC(=O)[C@H](CCC(N)=O)NC(=O)[C@@H](NC(=O)[C@H](C)NC(=O)[C@@H]1CSSC[C@H](NC(=O)[C@H](CCCNC(=N)N)NC(=O)[C@@H](N)CCCCNC(=O)COCCOCCNC(=O)CC[C@H](NC(=O)CCCCCCCCCCCCCCCCCCC(=O)O)C(=O)O)C(=O)N[C@@H](CC(N)=O)C(=O)N[C@@H]([C@@H](C)O)C(=O)N[C@@H](C)C(=O)N[C@@H]([C@@H](C)O)C(=O)N1)[C@@H](C)O)C(=O)N1CCC[C@H]1C(=O)N[C@@H](CO)C(=O)N[C@@H](CO)C(=O)N[C@H](C(=O)N[C@@H](CC(N)=O)C(=O)N[C@H](C(=O)NCC(=O)N[C@@H](CO)C(=O)N[C@@H](Cc1c[nH]cn1)C(=O)N[C@H](C(=O)N[C@@H](Cc1ccc(O)cc1)C(N)=O)[C@@H](C)O)C(C)C)[C@@H](C)O
# notes: Synthetic analogue, extended by Lys at the N-terminus; also called compound 45
# B3: N^ε1-[2-[2-[2-(19-carboxynonadecanoylamino)ethoxy]ethoxy]acetyl]-[Arg17,Pro21,Pro27]-h-amylin (peptide)
# peptide: K([AEEA-C20 diacid])CNTATCATQRLANFLRHSSPNFGAIPSSTNVGSNTY-NH2
# modifications: disulfide 2-7; N-terminus assumed
# SMILES: CC[C@H](C)[C@H](NC(=O)[C@H](C)NC(=O)CNC(=O)[C@H](Cc1ccccc1)NC(=O)[C@H](CC(N)=O)NC(=O)[C@@H]1CCCN1C(=O)[C@H](CO)NC(=O)[C@H](CO)NC(=O)[C@H](Cc1c[nH]cn1)NC(=O)[C@H](CCCNC(=N)N)NC(=O)[C@H](CC(C)C)NC(=O)[C@H](Cc1ccccc1)NC(=O)[C@H](CC(N)=O)NC(=O)[C@H](C)NC(=O)[C@H](CC(C)C)NC(=O)[C@H](CCCNC(=N)N)NC(=O)[C@H](CCC(N)=O)NC(=O)[C@@H](NC(=O)[C@H](C)NC(=O)[C@@H]1CSSC[C@H](NC(=O)[C@@H](N)CCCCNC(=O)COCCOCCNC(=O)CCCCCCCCCCCCCCCCCCC(=O)O)C(=O)N[C@@H](CC(N)=O)C(=O)N[C@@H]([C@@H](C)O)C(=O)N[C@@H](C)C(=O)N[C@@H]([C@@H](C)O)C(=O)N1)[C@@H](C)O)C(=O)N1CCC[C@H]1C(=O)N[C@@H](CO)C(=O)N[C@@H](CO)C(=O)N[C@H](C(=O)N[C@@H](CC(N)=O)C(=O)N[C@H](C(=O)NCC(=O)N[C@@H](CO)C(=O)N[C@@H](CC(N)=O)C(=O)N[C@H](C(=O)N[C@@H](Cc1ccc(O)cc1)C(N)=O)[C@@H](C)O)C(C)C)[C@@H](C)O
# notes: Synthetic analogue; also called compound 43
# B4: N^ε-[(4S)-4-carboxy-4-(19-carboxynonadecanoylamino)butanoyl]Lys[Arg1,Arg17,Pro21,Pro27,His35]-h-amylin (peptide)
# peptide: K([γGlu-C20 diacid])RCNTATCATQRLANFLRHSSPNFGAIPSSTNVGSHTY-NH2
# modifications: disulfide 3-8; N-terminus assumed
# SMILES: CC[C@H](C)[C@H](NC(=O)[C@H](C)NC(=O)CNC(=O)[C@H](Cc1ccccc1)NC(=O)[C@H](CC(N)=O)NC(=O)[C@@H]1CCCN1C(=O)[C@H](CO)NC(=O)[C@H](CO)NC(=O)[C@H](Cc1c[nH]cn1)NC(=O)[C@H](CCCNC(=N)N)NC(=O)[C@H](CC(C)C)NC(=O)[C@H](Cc1ccccc1)NC(=O)[C@H](CC(N)=O)NC(=O)[C@H](C)NC(=O)[C@H](CC(C)C)NC(=O)[C@H](CCCNC(=N)N)NC(=O)[C@H](CCC(N)=O)NC(=O)[C@@H](NC(=O)[C@H](C)NC(=O)[C@@H]1CSSC[C@H](NC(=O)[C@H](CCCNC(=N)N)NC(=O)[C@@H](N)CCCCNC(=O)CC[C@H](NC(=O)CCCCCCCCCCCCCCCCCCC(=O)O)C(=O)O)C(=O)N[C@@H](CC(N)=O)C(=O)N[C@@H]([C@@H](C)O)C(=O)N[C@@H](C)C(=O)N[C@@H]([C@@H](C)O)C(=O)N1)[C@@H](C)O)C(=O)N1CCC[C@H]1C(=O)N[C@@H](CO)C(=O)N[C@@H](CO)C(=O)N[C@H](C(=O)N[C@@H](CC(N)=O)C(=O)N[C@H](C(=O)NCC(=O)N[C@@H](CO)C(=O)N[C@@H](Cc1c[nH]cn1)C(=O)N[C@H](C(=O)N[C@@H](Cc1ccc(O)cc1)C(N)=O)[C@@H](C)O)C(C)C)[C@@H](C)O
# notes: Synthetic analogue, extended by Lys at the N-terminus; also called compound 44
# B5: N^-1-[(4S)-4-carboxy-4-(19-carboxynonadecanoylamino)butanoyl]-Gly[Arg1,Arg17,Pro21,Pro27,His35]-h-amylin (peptide)
# peptide: {C20 diacid-γGlu}-GRCNTATCATQRLANFLRHSSPNFGAIPSSTNVGSHTY-NH2
# modifications: disulfide 3-8
# SMILES: CC[C@H](C)[C@H](NC(=O)[C@H](C)NC(=O)CNC(=O)[C@H](Cc1ccccc1)NC(=O)[C@H](CC(N)=O)NC(=O)[C@@H]1CCCN1C(=O)[C@H](CO)NC(=O)[C@H](CO)NC(=O)[C@H](Cc1c[nH]cn1)NC(=O)[C@H](CCCNC(=N)N)NC(=O)[C@H](CC(C)C)NC(=O)[C@H](Cc1ccccc1)NC(=O)[C@H](CC(N)=O)NC(=O)[C@H](C)NC(=O)[C@H](CC(C)C)NC(=O)[C@H](CCCNC(=N)N)NC(=O)[C@H](CCC(N)=O)NC(=O)[C@@H](NC(=O)[C@H](C)NC(=O)[C@@H]1CSSC[C@H](NC(=O)[C@H](CCCNC(=N)N)NC(=O)CNC(=O)CC[C@H](NC(=O)CCCCCCCCCCCCCCCCCCC(=O)O)C(=O)O)C(=O)N[C@@H](CC(N)=O)C(=O)N[C@@H]([C@@H](C)O)C(=O)N[C@@H](C)C(=O)N[C@@H]([C@@H](C)O)C(=O)N1)[C@@H](C)O)C(=O)N1CCC[C@H]1C(=O)N[C@@H](CO)C(=O)N[C@@H](CO)C(=O)N[C@H](C(=O)N[C@@H](CC(N)=O)C(=O)N[C@H](C(=O)NCC(=O)N[C@@H](CO)C(=O)N[C@@H](Cc1c[nH]cn1)C(=O)N[C@H](C(=O)N[C@@H](Cc1ccc(O)cc1)C(N)=O)[C@@H](C)O)C(C)C)[C@@H](C)O
# notes: Synthetic analogue, extended by Gly at the N-terminus; also called compound 47
# B6: N^-1-[(4S)-4-carboxy-4-(19-carboxynonadecanoylamino)butanoyl]-Gly[Arg1,Arg17,Pro21,Pro27]-h-amylin (peptide)
# peptide: {C20 diacid-γGlu}-GRCNTATCATQRLANFLRHSSPNFGAIPSSTNVGSNTY-NH2
# modifications: disulfide 3-8
# SMILES: CC[C@H](C)[C@H](NC(=O)[C@H](C)NC(=O)CNC(=O)[C@H](Cc1ccccc1)NC(=O)[C@H](CC(N)=O)NC(=O)[C@@H]1CCCN1C(=O)[C@H](CO)NC(=O)[C@H](CO)NC(=O)[C@H](Cc1c[nH]cn1)NC(=O)[C@H](CCCNC(=N)N)NC(=O)[C@H](CC(C)C)NC(=O)[C@H](Cc1ccccc1)NC(=O)[C@H](CC(N)=O)NC(=O)[C@H](C)NC(=O)[C@H](CC(C)C)NC(=O)[C@H](CCCNC(=N)N)NC(=O)[C@H](CCC(N)=O)NC(=O)[C@@H](NC(=O)[C@H](C)NC(=O)[C@@H]1CSSC[C@H](NC(=O)[C@H](CCCNC(=N)N)NC(=O)CNC(=O)CC[C@H](NC(=O)CCCCCCCCCCCCCCCCCCC(=O)O)C(=O)O)C(=O)N[C@@H](CC(N)=O)C(=O)N[C@@H]([C@@H](C)O)C(=O)N[C@@H](C)C(=O)N[C@@H]([C@@H](C)O)C(=O)N1)[C@@H](C)O)C(=O)N1CCC[C@H]1C(=O)N[C@@H](CO)C(=O)N[C@@H](CO)C(=O)N[C@H](C(=O)N[C@@H](CC(N)=O)C(=O)N[C@H](C(=O)NCC(=O)N[C@@H](CO)C(=O)N[C@@H](CC(N)=O)C(=O)N[C@H](C(=O)N[C@@H](Cc1ccc(O)cc1)C(N)=O)[C@@H](C)O)C(C)C)[C@@H](C)O
# notes: Synthetic analogue, extended by Gly at the N-terminus; also called compound 46
# Biological target: T1, human calcitonin receptor
# Test: SPA radioligand competition (125I-calcitonin), membranes of BHK cells with human calcitonin receptor
# In short: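 BHK hCTR membranes 35 ng/μL + SPA beads 0.05 mg/well; buffer 50 mM Hepes pH 7.4, 1 mM CaCl2, 5 mM MgCl₂, 0.1% OA, 0.02% Tween20. 120 min, 25° C., shaking. Scintillation count; IC50 by one-site binding competition.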
row,Binder,IC50 [nM]
1,B1,21.3
2,B2,14.8
3,B3,2.64
4,B4,4.87
5,B5,15.5
6,B6,9.53

# Biological target: T1, human calcitonin receptor
# Test: ratio IC50 hCTR / IC50 hAmylin-R of the two SPA competition assays; reference: human amylin receptor
# In short: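 Competition binding by SPA with cell membranes (35 ng/μL) and SPA beads in 50 mM Hepes pH 7.4 with 1 mM CaCl2, 5 mM MgCl2, 0.1% OA and 0.02% Tween20. Incubated 120 min at 25 °C with shaking, then counted.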
row,Binder,Ratio hCT/hAmylin binding
1,B1,49.9
2,B2,26.8
3,B3,34.7
4,B4,17.7
5,B5,44.9
6,B6,48.9
